Measurements: paper doi:10.1101/2025.08.21.671625, “α-catenin phosphorylation is actomyosin-sensitive and required for epithelial barrier functions through Afadin” (bioRxiv, 2025)

Target: T1, full length αE-cat R551A (human, UniProt P35221 1-906, R551A)
T1 construct: αE-catenin (CTNNA1), human, full length, M3-domain salt-bridge mutant R551A; also called GST-αE-catenin (human) R551A
T1 sequence (looked up): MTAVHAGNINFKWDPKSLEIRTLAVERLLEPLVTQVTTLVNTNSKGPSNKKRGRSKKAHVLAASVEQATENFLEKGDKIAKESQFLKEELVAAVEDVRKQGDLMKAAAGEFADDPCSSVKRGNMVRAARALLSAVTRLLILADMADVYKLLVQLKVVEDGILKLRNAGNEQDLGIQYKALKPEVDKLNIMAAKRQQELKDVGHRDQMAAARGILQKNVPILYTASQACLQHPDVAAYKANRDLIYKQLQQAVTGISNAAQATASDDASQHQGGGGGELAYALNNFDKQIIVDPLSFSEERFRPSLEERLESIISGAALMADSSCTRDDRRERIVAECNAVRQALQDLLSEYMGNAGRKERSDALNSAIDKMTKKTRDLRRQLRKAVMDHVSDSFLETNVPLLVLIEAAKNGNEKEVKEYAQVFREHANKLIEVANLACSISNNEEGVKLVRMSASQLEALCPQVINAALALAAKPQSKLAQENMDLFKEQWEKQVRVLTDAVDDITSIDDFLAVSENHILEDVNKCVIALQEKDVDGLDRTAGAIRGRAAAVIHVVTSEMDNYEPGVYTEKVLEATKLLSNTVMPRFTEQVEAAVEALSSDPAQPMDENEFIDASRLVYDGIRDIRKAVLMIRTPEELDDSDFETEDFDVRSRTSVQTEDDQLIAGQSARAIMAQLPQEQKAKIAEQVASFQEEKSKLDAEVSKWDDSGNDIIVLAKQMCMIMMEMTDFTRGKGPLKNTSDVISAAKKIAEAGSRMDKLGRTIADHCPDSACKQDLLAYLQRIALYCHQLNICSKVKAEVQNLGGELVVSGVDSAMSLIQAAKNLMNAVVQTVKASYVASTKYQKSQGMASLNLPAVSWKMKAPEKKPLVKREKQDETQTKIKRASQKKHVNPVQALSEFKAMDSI
Experiment: pull-down; GST-Afdn-CC-ABR (or GST control) pre-bound to glutathione resin, mixed with α-cat prey proteins, washed, eluted with free glutathione; interaction strength assessed by Coomassie staining
Conditions: both partners purified

B1: GST-Afadin-Coiled-coil α-cat binding region (Afadin-CC-ABR; amino acids 1391–1449) (domain or fragment, rat)
chain: MDLPLPPPPANQAAPQSAQVAAAERKKREEHQRWYEKEKARLEEERERKRREQERKLGQ
notes: cDNA from the Takai lab; also called GST-Afadin-CC-ABR; GST-Afdn-CC-ABR; not shown: GST, N-terminal, kept
binding result: binds
